According to the domain aggregation screens of Martell et al. (2025):

Experiment: soluble fraction after stress (log2 fold change); higher = more stays soluble; pooled small domains, quantitative proteomics
Conditions: stress: 75 degC
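Also: 20 min heating vs room temperature control held 20 min.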

Sequence | soluble fraction (log2)
HMQISDSASVKTVVAEAIAANPKAVADFMNGKDTATRYLVGQVMKITKGQAKPELVNQLVLESLAELKEK | 0.361
HMQISDSGELEKIVLQVIEENPKPAEQVRSGNEKAIGALVGGVMKATQGRADGGEVNRLLRQHLGL | 0.248
HMQISDVSLIAKVIDDVIDNNVKSVSDYLEGNLNVLRFLVGQVMKETKGKANPQKATELLQEKLESLNN | -0.896
HMQISLDTKLINLEFSVRANNVFRENQIFTLRDLTSHSKEDLMLMTNFGKTTLYEVNKKLEEHQLKLSQ | -2.43
HMQISNEEELEKIIENVIESNPEKVKAYQSGKSGLIGFFMGQVMKESGGQANPNLVNQILKGKL | 0.109
HMQIYSQEIYDAQKVLKELGLYTSDLDGLNGPGTKRALRNFQSKSGLNADGVLGPLTKSALDKGEESYITV | -0.0827
HMQKADFDYGDYVDLGLAMGRQSRQLREAVGIKLGIGYANSKRFYQRLQTFGISLAELKQAVEEAENDQQN | -1.12
HMQKEMDIVLQINGKMRSNLKVSSTANDDEIIKTAIESDAYKKFSLGLRIQKTIIVPNRLINIVLEK | -3.24
HMQKIYTIARGDTLSHIVAGTLKQQGIAYTTGELYRLVNVVAQYNDILNPNRIYTGHQLDLTPLYSED | -0.15
HMQKLLGPFEDFVKIKLDKYPDTKAAQMHDWLKEHYPDFPEVTPKTVYNFVMYVRQRHNIPIPD | -0.359
HMQKTVLAASVYERMKERIMDQYYPPGERLNIDALAIDLAVSPTPIREALARLAAERLITFEAYKGYRVSP | -3.38
HMQLEPLVTSVIPVNFAKASDISGTIKGKEVGLLSERGNITAENRTNVLIVKDIRKSVDEINAMVKRLD | 0.0272
HMQLFKFKNAMMELAKNKNITLDTAEKAIGLEAGFTELVARGVKELALSDVIKISKYFNTTMDSVLD | -1.44
HMQLPFTPREHEITQLLSRGLSNRQIAEALSLSVRTVEGHIYQASTKLGISSRSELAVLVGQFA | -1.94
HMQLSQLLQPFDINAFKGHPLYTEENVKMFNDYTNRVKEWTKGTPYEQYWVTKEGQPTMLAWDSFKK | -1.28
HMQLTQEAIENLFKITTAKKFREELEKLVVTDSEKKAFAYFTVYHPKLKELPFAILKSVENYTGISI | -0.963
HMQLVPGIGRLSARELEVFTLIGRGLGTSEIGKKLGVSAYTVQTHRNHIKEKLNLPNAAAITYWAIQWAHG | -2.27
HMQMEDTDALLQVAKEVVAENQDTVEAYLGGREKAFASLIGAAMKKTRGKANPKVIRQLILDLIQ | 0.564
HMQMEISQRIKLERQTLKWTQEELADKIFVSKRTISNWETGRTVPDIESVLRLAKVFHVSLEDLLL | -4.46
HMQMEYEKAIAYILDKIKSGELSIGSKLPAERVIADTLHIGRNSTREALSILHGMGMVDRVHGSGNYISEH | -0.752
HMQMLQDPFLNALRKEHVPVSIYLVNGIKLQGQVESFDQYVVLLRNTSVTQMVYKHAISTIVPARAVSL | -0.748
HMQMRKENKILVTDIGEIDEVKVIFDDDNKPYLYSYNGEDEFYRPDETYKFFDNKEQAEEYVREN | 0.0692
HMQMSPREKMIYSFIESHPGTKSGEIAEKLNVPLPTVKRILSEMVSGNFIAKHGSGIGTNYSTEK | 0.335
HMQMSWDAVKARLQDIVNNEDKTKPFNDEMLASKLKEQGIEIARRTVVKYRQQLGIPAARLRKK | -0.752
HMQNAETPDVAAEFRTWTSADGQFQVIAKLVKLDGESVHLERQDDGRQIAVPLGKLSSEDRLFLRGVRP | -0.184
HMQNEQIAFSKFLQEVDSGRVVQVEIQGNNIKGILSDGSKFYTYSPNYPELVGKLSEKGVNIVASPVE | 0.196

Sequence | soluble fraction (log2)
HMQNFLSITSKEKIDIGNFQLISFKFENNLYDYVISGNKSELLIFQEKTIENNNENIEKITSNF | -2.54
HMQNLETVEEIKELALNYLDKYQPSKKSLQVYLFRKAIDAQSNSVEKSEILKKIETVLTDLEEQGILNDAL | -0.135
HMQNMVYVATKDIPAGGVIDQDSVSKTAISTSIDTSLYITDDDLGKIAVVNISQGQSVFSNMVGT | 0.656
HMQNNITISKEIELRTGPDDTYPTLKKVTAGDNVEMLSKSDTWYEIKTNDSFVGWVPGWSIL | -0.0886
HMQNSYSVEDLALKAGLSVDTIRYYQGLDLIAPPQKNGRRAIYGDEHLSRLDEIKKLALEGFSLRQISLLK | -0.739
HMQNYNLTQQEKKVLQLLVSGKSYKMIAAELNVAFDTVKSHITNIYSKLHVHSGTEAVSVAIRDKI | -1.46
HMQPDDELVRLLLIKIFNDKQLKVNPAVINYLLRRIDRSFESINNFVKKIDEFSLEKGRKITVNLVSGFF | -0.777
HMQPFTELTPREREILGHLAEGQSNKVIARHLDISDGTVKLHVKAILRKLGVHSRVEAAVMAVEHGIR | -2.11
HMQPIEIQDRITKAFERSAALEAKNINVEVDGHTVKLTGTVHSLTEKEEARKAAFFAPGVTKVENHLIVDY | 0.0424
HMQPMIQIHTLANHAPVALHIKRNTQRNIIIRARDASSLNLSIPKWFSPAQLQNWLRDNEATLIRILQQAP | -3.6
HMQPPKIISTVEPYREVVREYLKQGVEMTAIWQRLRENYQYTGSYSSVRRFVAQLEPRQPEA | -1.9
HMQPQLFRVIADDGLNIRSGPGPEYPPVAPMLRKGTQVELLQAGDRWSKVEVVGSTDVEGWVNQRYLQAV | -0.169
HMQPSQTLSATVEFPDRLDRFLALAFPEVSRARFQRLIAEGHVSVEGVPATEIRHKLKAGQRVEAVIPPA | -0.276
HMQPTVEGLMKALETMTFNERTALALHYGLTGRQPMTFMAIGRYLGISDGRAEALVNSAIRKLR | -1.8
HMQQGVEQLPVTEVGGRLMHYYEVQPKETLYSLSHKLGVGQEYIEQHNPSVRGGLRAFMTLYFPAA | -0.00835
HMQQIAVDLSEFKPRLMRDMSSMLAGLYTHDLDLSSLDFSKVANFTFMFRGAIITGTLKMPKI | 0.202
HMQQLDDDTVAYVADNGIAVKSKNGKELSVDTSGLSYDIIMDMFRNLPRNGDFFSSKYWSDNIQKAQAR | 0.447
HMQQLIEFSVTKGHPWINKKIMDLNLPENQLILTIQREGHVVSAEGKTIILENDRITISTDDR | -1.26
HMQQPVVVQQNQTVRVVTGGPGFQVANEGRALNNGLAGQVVQVRLGNGQIISGIARAGGIVEIL | -0.017
HMQQSQLDDIKSVVGGDEGYNKLREWTQANVPDETLKAFDKILDTQDPTMIKVAVEGFAAQMRQAE | -0.232
HMQQTAEDWKNKGDSLTAQSEYVEAIAAYDEAIRLDPNYAPAWSNKGNALKNLGEYYKAIQAYDEAIRL | 0.104
HMQQYLDAYDKALAFGIAMNKLPSYENLTLDDKEDVDKLKEIYDGMSNYEKTFVAKDFTDKLDRYVKRIE | 0.347
HMQRADYLILYYIKMQAEQHPDSKVYLADLAAVMGLKVTELSKAVEKLQDNGFVAWKTDREAGRTYVELS | -3.13
HMQRIFIDNHDRILYYSNPAGYIAGKEAVVDTMFQTQELERFLQKQSLSIRWEDGVYDRLLLGQ | -0.0579
HMQRRHESTPIPADFDYAAVRGLSAEVQQKLERVRPLSIGQAQRIPGMTPAAISLLLVHLERQRRSRV | -1.24
HMQRSVKNNDTVQVHYTGKLTNGQIFDSSIDKQPLEFQLGQGQIIPGFEKGLIDMTVSEKKTITIPEAEAY | 0.193

Sequence | soluble fraction (log2)
HMQSAEMTLDREGQPVQVRVELTGNEARITFLSDQEQTREALDAGMAQLRELLEQQGMVLAGVTV | -0.00816
HMQSDQLSDREREILRLIGSGRTNQEISQELQVSGSTVRTHLQHILDKLGLENRNQAVLYAIRIGLAAPP | -0.163
HMQSHGSRIWTDITGNFTREASFIELAEGKVTLQLTDGRRTIISFEILSKKDQEYVLDIGDS | -2.77
HMQSKDDLLDTFRVVKGNAALLNDQNKKLIRSLKVSSFGFTGITDQAAEVKKEMPDVLLEKASIEDILF | 0.0597
HMQSLAAKINGYIVAQRTSIAAIAKEIGYSRVTVSRYLAGKYDSDPTGIEAKLAAFLAGQTGEE | -3.99
HMQSNIHELQKKLNEALQALSEDHRAVVTMFDIQGMPHAEISKILGVSEGTVRSRLYYAHQQLQGHL | -1.11
HMQSRYALLAGMLRARITEGDWVPGSAIPAETVLAKEHGVALGTMRQAIALLVSQGLLERQHGRGTFVRS | -1.58
HMQSSDQTDNIYENAVSIVLETGKASASHLQRVLGIDYNLAAHLIDKMEDGGLLSPPNYLGHRDVYGYT | 0.317
HMQTFNADDIEPIIKEILQENPKAISDFLTGNENVVKFLLGQVMKNTKGKANPKVIEELLINQLRELNN | -0.235
HMQTGYHVRITASTLNVRRDHSASSAVATQVRRGEVYTIVDEYNNGGTLWGKLKSGAGWIALKYTQS | -3.39
HMQTTITITNTVTGQKAQFPPPFNPMSLSKIGVDETFEKEVFVDGVDTFGYGLDGYLTFYELKDFLRSYQ | -2.61
HMQVEYTRGELLQDLKEENVLYATITPSRETPTGEVDFVFKDKSIKTLYVTDVSEIEGLLMDYGIDPEVKK | -0.454
HMQVITEPFQEKYREFINMSTVTQRLEERETLSFTAQTVEGRWLTIIIVPQGYDKTGKLSTVLVANR | 0.274
HMQVSDEGAIQLLVQKAIEENPQAIEAFRGGKTSALGPVVGWVMKQSKGAANPTMVKTLLEKAI | 0.154
HMQVVVEKSKEKVIISGNQYYIHIVKKGETAFSIAKAYGITVDELVKNNPSAATVLKEGQALRIPVVE | 0.0365
HMQYDESSQLGERFLNQALNALKADPDKVGDAQWEKLLKENSAKSRQEVLADIGLGKQLAIVIARELLS | -0.148
HMQYPSSLDSRAKQSLYDNLERNEILALALDNVIQSNKLDGWRDGGIKERKLRLAINNLLKNDEHTDNIME | -0.0341
HMQYQIITENGKQYYLYTVQKSEGFYSIGKRFEITNDEIIKANPEAALGLKLGQVLKIPVYK | -2.4
HMRAAKSEDTRTRLIEGGMALFGQKGYNATGIKDITDAAGVPKGSFYNYFASKEDFGAEIIHSY | 0.14
HMRAEELEQFVERLKNEVMNNFPLKELSDNELREKIENLVEIRLANVYVSIEQRVAIAEQIYSSIR | -1.1
HMRAERVQITDPYIELHTGPGRGFPIFFVAPREQWISIELRHTDWFKVRAVGGQVGWVQRKQLEST | -1.56
HMRAGHDFEALKHIESSLDKHLTDEGIKIKSEKRGAIVARWYQSHVEGREVTDDDVHTWIELFF | -2.82
HMRAPIGFRISNRRKSLKISQVALARLVGISPSYLNLIENNKRDVGGALLQRVALHLNIDIDDL | -3.13
HMRARTLSTTGGESLLTLAESLYPDDDRARARFIEATAAANPKLFADIAALTRVLPAGTTLRMPDLRA | -0.0128
HMRARTQYWPFVEEKAAELKLPLHLVNVEPLFGEQKVVVHYTANGRIDFRELVHLLARRFHARIEMR | 0.0673
